The numbers were not newly measured in PMC10093836, “Stabilization of the Dimeric State of SARS-CoV-2 Main Protease by GC376 and Nirmatrelvir” (International Journal of Molecular Sciences, 2023), which cites them from elsewhere.

The data set addresses Mpro (SARS-CoV-2) (UniProt P0DTD1).

On to Mpro (from UniProt P0DTD1), for which the equilibrium dissociation constant (Kd) was 7 µM.
